Results reported in patent US20200377555A1.

Key:
Details in all cases: remark: other sources report otherwise
[1] = target: T1, UFV5367 (influenza A H1N1 A/Brisbane/59/07), A8C8J4
[2] = target: T1, UFV5367 (influenza A H1N1 …); remark: listed apart in the source
[3] = target: Full length HA H1N1 A/Brisbane/59/07 (influenza A H1N1 A/Brisbane/59/07), B4URD6
[4] = target: T1, UFV5367 (influenza A H1N1 …); experiment: ELISA, polypeptide coated, antibody titrated; average of 3 independent assays
[5] = target: UFV180499 H5 A/Hong Kong/156/97 (influenza A H5 A/Hong Kong/156/97)

B1: Fab fragment of mAb CR6261 (Fab, V domains shown)
VH: EVQLVESGAEVKKPGSSVKVSCKASGGPFRSYAISWVRQAPGQGPEWMGGIIPIFGTTKYAPKFQGRVTITADDFAGTVYMELSSLRSEDTAMYYCAKHMGYQVRETMDVWGKGTTVTVSS
VL: QSVLTQPPSVSAAPGQKVTISCSGSSSNIGNDYVSWYQQLPGTAPKLLIYDNNKRPSGIPDRFSGSKSGTSATLGITGLQTGDEANYYCATWDRRPTAYVVFGGGTKLTVLG
MW polypeptide + Fab6261 (kDa) [1]: 204 kDa

B2: CR6261 (antibody, V domains shown)
VH: EVQLVESGAEVKKPGSSVKVSCKASGGPFRSYAISWVRQAPGQGPEWMGGIIPIFGTTKYAPKFQGRVTITADDFAGTVYMELSSLRSEDTAMYYCAKHMGYQVRETMDVWGKGTTVTVSS
VL: QSVLTQPPSVSAAPGQKVTISCSGSSSNIGNDYVSWYQQLPGTAPKLLIYDNNKRPSGIPDRFSGSKSGTSATLGITGLQTGDEANYYCATWDRRPTAYVVFGGGTKLTVLG
Kd [2]: 480 pM | Kd [3]: 1100 pM | EC50 [4]: 417 pM

B3: CR9114 (antibody, V domains shown)
VH: QVQLVQSGAEVKKPGSSVKVSCKSSGGTSNNYAISWVRQAPGQGLDWMGGISPIFGSTAYAQKFQGRVTISADIFSNTAYMELNSLTSEDTAVYFCARHGNYYYYSGMDVWGQGTTVTVSS
VL: SYVLTQPPAVSGTPGQRVTISCSGSDSNIGRRSVNWYQQFPGTAPKLLIYSNDQRPSVVPDRFSGSKSGTSASLAISGLQSEDEAEYYCAAWDDSLKGAVFGGGTQLTVL
EC50 (read off the curve) [5]: 0.02 µg/mL
